Experimental data published in US20160243521A1.

Experiments:
[1] = biological target: human polyclonal IgG (Gamma-globulin NICHIYAKU, NIHON PHARMACEUTICAL CO., LTD.) (human); experiment: column dynamic binding capacity at 5% breakthrough, residence time 3 min (Test example 2); Protein A 35 g/L on cellulose beads made with crosslinking agent EX-314
[2] = biological target: human polyclonal IgG (Gamma-globulin NICHIYAKU, NIHON PHARMACEUTICAL CO., LTD.) (human); experiment: column dynamic binding capacity at 5% breakthrough, residence time 3 min (Test example 2); Protein A 35 g/L on cellulose beads made without crosslinking agent in the dispersion

For “non-orientation-controlled Protein A (from UniProt P38507 37-327) (ligand)”, the 5% DBC at RT of 3 min (g per 1 L of the filling adsorbent) [1] was 65 and the 5% DBC at RT of 3 min (g per 1 L of the filling adsorbent) [2] was 49.
